Assay: soluble on expression in E. coli; label from the status in PepcDB or PDB records

Row | Sequence | soluble on expression in E. coli
1 | MVEKFDTIYDYYVDKGYEPSKKRDIIAVFRVTPAEGYTIEQAAGAVAAESSTGTWTTLYPWYEQERWADLSAKAYDFHDMGDGSWIVRIAYPFHAFEEANLPGLLASIAGNIFGMKRVKGLRLEDLYFPEKLIREFDGPAFGIEGVRKMLEIKDRPIYGVVPKPKVGYSPEEFEKLAYDLLSNGADYMKDDENLTSPWYNRFEERAEIMAKIIDKVENETGEKKTWFANITADLLEMEQRLEVLADLGLKHAMVDVVITGWGALRYIRDLAADYGLAIHGHRAMHAAFTRNPYHGISMFVLAKLYRLIGIDQLHVGTAGAGKLEGGKWDVIQNARILRESHYKPDENDVFHLEQKFYSIKAAFPTSSGGLHPGNIQPVIEALGTDIVLQLGGGTLGHPDGPAAGARAVRQAIDAIMQGIPLDEYAKTHKELARALEKWGHVTPV | soluble
2 | MIYEFCAENVTLLEKAMQAGARRIELCDNLAVGGTTPSYGVTKAAVELAANYDTTIMTMIRPRGGDFVYNDLEIAIMLEDIRLTAQAGSQGVVFGALTADKKLDKPNLEKLIAASKGMEIVFHMAFDELSDEDQAEAIDWLSQAGVTRILTRAGVSGDSLEKRFVHYHRILEYAKGKIEILPGGGIDLENRQTFIDQVGVTQLHGTKVVFLEHHHHHH | soluble
3 | MGHHHHHHSHMRRFQRSTVIDAPRELVWAFHEQADVLEQLTPPWLPVEVVRREGGLGPGAVSEFRLWLGPVPIRWVATHNDDYEPGRCFCDRQSQGPFADWLHRHIFSREGDRTRLIDEVEYALPGGWLPELSVCPVVDAQLERLFAYRQQVTKQWCESRRDAFLQSNRTTKGLQSL | not soluble
4 | MASQPNSSAKKKEEKGKNIQVVVRCRPFNLAERKASAHSIVECDPVRKEVSVRTGGLADKSSRKTYTFDMVFGASTKQIDVYRSVVCPILDEVIMGYNCTIFAYGQTGTGKTFTMEGERSPNEEYTWEEDPLAGIIPRTLHQIFEKLTDNGTEFSVKVSLLEIYNEELFDLLNPSSDVSERLQMFDDPRNKRGVIIKGLEEITVHNKDEVYQILEKGAAKRTTAATLMNAYSSRSHSVFSVTIHMKETTIDGEELVKIGKLNLVDLAGSENIGRSGAVDKRAREAGNINQSLLTLGRVITALVERTPHVPYRESKLTRILQDSLGGRTRTSIIATISPASLNLEETLSTLEYAHRAKNILNKPEVNQKL | soluble
5 | MSLQHNELKTPYFMINEDKLIANLEKAKQLKEISGVKLVLALKCFSTWGVFDIIKPYLDGTTSSGPFEVKLGYETFGGETHAYSVGYSEDDVREVADICDKMIFNSQSQLAAYRHIVEGKASIGLRLNPGVSYAGQDLANPARKFSRLGVQADHIKPEVFEGIDGVMFHMNCENKDVDAFIGLLDAISEQFGEYLNKLDWVSMGGGVFFTWPGYDIEKLGLALKAFSEKHGVQMYLEPGEAIITKTTDLVVTVVDIVENVKKTAIVDSATEAHRLDTLIYNEPASILEASDNGEHEYVIGSCSCLAGDQFCVANFDQPLEIGQRLHILDSAGYTMVKLNWFNGLRMPSVYCERSSGEIQKLNEFDYSDFKRSLSEGHHHHHH | not soluble
6 | MLRSLSTISKSTVRCMSLTSKMAAEQPSKQEVDDLFAEKPQHHNPEQRRHAYSVNKVELVGGVALDPLYKTGRNGKPYLIFNIITNSYFKQQDGTTLDQTERHAVSVFGKQAEILSKTIKKGSRLMVQGRLHYSGGQKDEQGNRTQRNTYIIAQTVQPLARAARENPDQH | not soluble
7 | MSLMKQIKHFNQNYQELRQLGKVAIGRRAGKLKAGTIILFAVDSQGKILAARKMQGVTVLAKFHPLPQYVNEDIHYMDHYHPLVQKENKLTQQAMENAREIYLRVELGNYQETQPLTPLNGAKIQWQLWKNKVQTKLKGSVEEGHHHHHH | not soluble
8 | QEARTGNDIAQLPAISVTGREISDLTEGTNAYTTEAMSTATGLTLSPRETPQSVSVVTRQQIEDQGLTDTGAILATAPGISVTRSDSNRYSFSARGFTIDNFQFDGLVSPILSQWNYGSTDMDAAIYDHVEIVRGATGLMTGSGNPSAAVNFVRKRPLREFAATFNASVGSWDYVRGDADISVPITEDGRIRSRLVAAYSQGDSYVHFLDTRRRTFYGVVSADLTPDTVLTTSVEYQHNHSNGFGSGFPLFYSDGSRTDFNRSVANNAPWARQDTEATTYFVDLTHRFTNDWKLRAAYSHTDGRYLMKHVYRGGYPDRHTGIIAAPPAFSNYDGNLDRDDIHFSLSAPFEAFGLRHEVALGWMSIDNHSDIQRYAMVGPAPAIGSFFDWRRAGSHHHHHHHIQEPSWADTLSPADDVRTKQTGAYLVGRFALAEPLHLIVGDRWSDWKTKQMYFGSRREYRIKNQFTPYAGLTYDINDTYTAYASYTEIFQPQNARDTSGGILPPIKSKSYELGLKAAYLEGRLNTSAALFQTRQDNLAQVIPGSSIPGFPNMQASRAASGAKVEGIDLEASGQILPDWNIGASYTHFTTKDASGNPINTNHPRSLFKLYTTYRLPGALHRLTVGGGVDWQSRMYQAAASPRGNVEVEQDSYALVSLMARFDFNKKLSATLNVNNLFDKKYYDQIGFYSQGWWGAPRNVMLNLRAQY | soluble
9 | MGHHHHHHSHMKSQGQHWYSSSDKNCKVSFREKLLIIDSNLGVQDVENLKFLCIGLVPNKKLEKSSSASDVFEHLLAEDLLSEEDPFFLAELLYIIRQKKLLQHLNCTKEEVERLLPTRQRVSLFRNLLYELSEGIDSENLKDMIFLLKDSLPKTEMTSLSFLAFLEKQGKIDEDNLTCLEDLCKTVVPKLLRNIEKYKREKAIQIVTPPVDKEAESYQGEEELVSQTDVKTFLEALPQESWQNKHAGSNGNRATNGAPSLVSRGMQGASANTLNSETSTKRAAVYRMNRNHRGLCVIVNNHSFTSLKDRQGTHKDAEILSHVFQWLGFTVHIHNNVTKVEMEMVLQKQKCNPAHADGDCFVFCILTHGRFGAVYSSDEALIPIREIMSHFTALQCPRLAEKPKLFFIQACQGEEIQPSVSIEADALNPEQ | not soluble
10 | MGSDKIHHHHHHAGEKLVESAAAPRIINIINFIRQTDYRVENADSLLYETVCEQVKLVNKYDLPATFLLQYDALINPLYQDLLKSKLNAHSEIGAWWELTQPQIEAAGIKWRGEHSWVSHANIAFSTGYTKEERERLVDVYMAKFKEIFGTYPKSVGSWFIDAHTLGYMYDKYKIVASCNCKDQVGTDGYTLWGGYWNQAYYPSRVNAYMPAQTEEGQIPVPIFRMLGSDPIYQYDDGLGQERQGVISLEPVYEKAGMDRRWVDYFLESIVNQPCLAFNYAQAGQENSFTWSNMSKGLEMQIPILDSLRKENKIRVETLGESGAWFKECFKVTPPTAVTTLTDVRGEGNKTVWFNSRYYRANLLWERGTFRFRDIHLFDEGYKSAYMEKPGDGNQFLFYTLPVVDGFMWSEGLDRAGLRIVRLDKDGDKEELTLDHPVVTEIGKDTLVVSAEDSKGHPFKITFYETRFEVAALSKEADLSWALELKVAAGKELPFTVIEDKAVNASFDGFNYVITCKKGHIRKPESGSDYVFRILPSDKEIVINCTNTRLNCTHEK | not soluble
11 | MGHHHHHHSHEHCAIILEDDRSDISSTCANNINHNTELLPIELDTLVGKGRFAEVYKAKLKQNTSEQFETVAVKIFPYEEYASWKTEKDIFSDINLKHENILQFLTAEERKTELGKQYWLITAFHAKGNLQEYLTRHVISWEDLRKLGSSLARGIAHLHSDHTPCGRPKMPIVHRDLKSSNILVKNDLTCCLCDFGLSLRLDPTLSVDDLANSGQVGTARYMAPEVLESRMNLENAESFKQTDVYSMALVLWEMTSRCNAVGEVKDYEPPFGSKVREHPCVESMKDNVLRDRGRPEIPSFWLNHQGIQMVCETLTECWDHDPEARLTAQCVAERFSELEHLDRLSGRSCSEEKIPEDGSLNTTK | not soluble
12 | AQELQTANEFTVHTDLSSISSTRAFLKEKHKAAKHIGVRADIPFDANQGIRLEAGFGRSKKNIINLETDENKLGKTKNVKLPTGVPENRIDLYTGYTYTQTLSDSLNFRVGAGLGFESSKDSIKTTKHTLHSSRQSWLAKVHADLLSQLGNGWYINPWSEVKFDLNSRYKLNTGVTNLKKDINQKTNGWGFGLGANIGKKLGESASIEAGPFYKQRTYKESGEFSVTTKSGDVSLTIPKTSIREYGLRVGIKF | soluble
13 | MMIDDSKVSFVIPTINEEGTIGSVIDGIRSEFPNSEIIVVDTNSTDRTREIARSKGARVIEEPRRGYGRAYQTGIPAASGEIIVCMDGDGTYPTDVVKPLIELLIADRVDFISCDRITFRTSKNYTTLHYVGNMVLNLTIRILFKVRMVDSQSGMWVFRSEIYRKMKNLGNGMSFSQNIKIEAVRHGVFMEIPIRYGVRITKPKLKTWHDGFHNLFALFVKRVSE | not soluble

Reference: the DeepSol protein solubility set
